In the supplement of paper PMC12636428:

Test system: Saccharomyces cerevisiae
Experiment: transcriptional activation domain activity (GFP:mCherry ratio, weighted mean of sorted bins, harmonized to initial dataset scale) (arbitrary fluorescence ratio units); higher = stronger transcriptional activation
Conditions: beta-estradiol 1 µM; induction time 4 h
How it was run: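 Protein tiles carrying barcodes and fused to an estradiol-inducible synthetic transcription factor were placed at the URA3 locus of yeast diploids with a GFP reporter. Following 4 hours at 30 °C in SC with 1 uM beta-estradiol, cells were sorted into 8 GFP:mCherry bins, barcodes were sequenced, and tiles with fewer than 50 reads were discarded. Activation activity is given as the read-weighted mean of bin median fluorescence, averaged across barcodes and linearly mapped to the initial dataset scale.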

| Sequence | transcriptional activation domain activity |
| --- | --- |
| EGEAPKAEEEEEKDAAPDGEGEQPAEADPEEEERQRRAAIAARMARLGGARLG | 14200 |
| YQNLYFIQLLVSCWALIGMLHLSLNRFEHLHFMVYMRPSGSKYLVAISWCLFL | 66900 |
| KQPKKKAAAKKAQAPKKGKKRAADDDEEEEGEEDVKPKARGKGKGKAATGKGR | 42300 |
| LFGLFGPLDLWTFWTFGLFGLFGLFGLFGLFGLGLFGLLDFLDFWPWTFWPWI | 57700 |
| MSMGIEFPFFTFRFSPSPLLLLLPFPPPFLPPFCLSAFFPSPLSPLPFPFLPS | 51400 |
| YILSSLVTYKGIINHNDQSILILGIPKLHRLLMENVHVLHLLINSCITTLASC | 44000 |
| MYELAFFFFFFLFRLFLSLFRGGCFWVQIFVFIPEYLVYSILFSFFFLLLFTF | 47500 |
| NYVMLCSVYTTVHIHKHGRDAWKLMIRERSWKYILFAMADLQGNLFVLYAFRN | 59300 |
| ALVRCCLSKVVYVALEFISICTMPESAKGVINLIDNLSPYARKDLVHLRGWVC | 51800 |
| TVSDEAIEVCVAAQAREGEANKSVREVIAEALNVPKSDVEIAKGMKSREKTVA | 25700 |
| LLILLLAFKKTSKEDPYEAIRLMSLAIGDQYAQGPDRFRLSCQWAVLARMISH | 38400 |
| ESSSSTGAEEKKKKKKSSKDKKRKAEDEDDATDGAEEKKSKKVKASEDEPARK | 14100 |
| IQAAGLWQCRYSSYGIECVRYVFFFTMFLFLLRSGWYLSSAFFLGLLWHQLSF | 39600 |
| ENVYRPFLMVYTEAIILIFSFYLIILYIVLFTFLEGYPYIFSRVYGISDSLTF | 40900 |
| AIRRSFAHVFCLCCIMEFPTFILGLGSLYPSLRSNVFFALSFFATRIVLHLML | 65700 |
| GGRGGGRGGRGGGGRGGRDRDGGRGGGRGRGGRGGGEGEEVVGTEGKDGGAEA | 18300 |
| MTTLYISFLFFLFCASFTFCTIFFFFFFFFTQWLYSSPLHLSLSLSLLFLFLI | 65100 |
| MMGLRELHAASREFAMLFWREPRLDLALFLLLFLFFFVLFLFFCLFFFFCLVF | 15100 |
| YVRRARGYVMYGLFQLMLRFLLAGFFFFSFRGGDMGIGCGYRLLLLLFFFFIY | 35800 |
| KPKPKPKQYPKVILPSNSTRRVSPVTAKTSSSAEGVVVASESPVIAPHGSSHS | 47200 |
| LLLLLVYSNVALLVYHAPTYTRPFDMALIHAPLRFFMILPLSLLFPYSLFITL | 57700 |

| Sequence | transcriptional activation domain activity |
| --- | --- |
| MFTWNRMKVLTVHAPCRTGGLARLFYNFCIKHPAMNIAWWIDEILFPLYHLAR | 53100 |
| HHLRLHWFADVLNYRARDTLFSILRIVSHIRSLRLFAVYLLRWERQRHEAKTV | 49800 |
| KSVVLERKLAIGQCRHLFTVNDNWLVSVWNDFHVGIVVRNMVFFLCRLVFDFM | 42700 |
| AAADAEVDELEDGTADADGAKPKKRKRGGDADGKPKSARKDAPAAAKKKGGAA | 36500 |
| YLIGFIGFVMSLQKQYLKSQFGLFCWVHMSLLVIVVSSHFIINNIFEGLIWFW | 79300 |
| EKTKRKKKSATGATKRAGSGEAKPKRQRKKKGRRGESGDEEESGDEEGAERRA | < 6570 |
| MADEEGASPRELILEACRRNNTSLLEETLADLASSASKAKQDPTGYVAKTLNE | 42600 |
| LNWYWLTTTMYFLYGESMLFYFKHIVLVGSVLTPLATHHRFISFTLYIFGFIF | 42000 |
| LLFTLLWLLFFFFFFLFLLFFFVVLVFVFFVVYFFILLLLFIVVDDEWVLLGL | 45300 |
| RLIYGDYVSYHFLKMLHKVHDQISLAYIHHGLELVMWSCKVLVLLFKQLFESY | 67900 |
| YVGRSVLIHQSHGSFEILILWNHYPLLCFFFCHGRRRVFSARLSLLLFCLCRF | 54700 |
| ESNVEAGKAEAEKAVEEAAGAEGEGGEEKAVEEEVAEGAEGEAAEGEAAEGEA | 32600 |
| GVEWWNVTSPEDSTYDPASLPLDVWDPLLPHDTGFSEIDITQCFFDPFFMPFL | 160000 |
| WHIRCVLLLVAFLHICYQVSYCACGLILVCLNFIFVRQPGGLEMLLTLKTAFY | 57800 |
| RNGDKDSGHSRHKDRRHEHRSERRRYSDEGEEDRHRSHRSSHRSSRRRSRSRS | 31900 |
| ALYSLKGRELGWLCLTICTFDGKSWMEFGAFSRRGLFTYNYGLLQPNTKRIAV | 35700 |
| MADQPQGRKPNNRRPRHRGRGGGAGGGGNGGGNGGGEDGGNEGGRGGRRGGRG | 33900 |
| FLLFLSFGGLGGGIYSLCFGHIFSSLFLLFVLFSTSFPYMGPQLHVVMMPTCT | 40500 |
| MAPSASAGGSGAAKPKKTRAKHACRECNSRRVKCNVTERQPCTNCAASGATCE | 11700 |
| PQQAQAQKEPKKPKPPPPPAAPPGPPPPPRAPPPPPPPPPPPPGGGGAPPPPA | 27600 |
| KLWAKRRAIYSNVMGFLGGVAWAMLTARVCQLYPNACAASIVNRFFRIMYQWN | 49800 |

| Sequence | transcriptional activation domain activity |
| --- | --- |
| HINYFSLSLIIFYFLIFFISNYLLIKFLFFNYFLPKWWSSRPLRSMIYSLFSI | 42500 |
| IIAKVIKYAKTIEELYLAYFSVKEYLLNIAIAKTCLTYLTDIKGSHSMIRYNF | 28200 |
| HLLKWCNFGLLPHWLFHILILVSKSSLNNLIIAYVYCPLFFGCFLPSTYISCN | 58200 |
| YSRLILSVIIQFYQRCSDRFQDVVSRNSLDLTDTRLLVSARWAQRENLVVCLS | 49600 |
| MPNKLVYEICFVHLTINCLCRGCLMYCALYIILIIKYHNHLLYFIFFNFMAIP | 38200 |
| SFSSIIILLALCLVLLAVFFYFPFFFCLFCPYVLCCHPIFPPTLSQVSILAYY | 44700 |
| LALNDISRSVVAAGRVDGAVHITGVRDAVVAVAARQVRVHECRNVDLYLRCAS | 44800 |
| MFLTLLLGISLLPSLVIVYHLPHSLSFFFPPFLPFLLLPSILFLPGPFLRTAR | 64000 |
| MLLSMLYNSVGYQYLEDHCPQGGEYSDLLRNLINECEAILPSYEIIERYKNHF | 39500 |
| AYANDKESTREKFILVVWIGPQCKVMRKAKVSVHAADVKTTLRVYSIEVAARE | 35700 |
| ESSLSDKAEPKKEDSGKMAEAPKPAPEPKKEPKKEESKPAAKQESKKEVEEKA | 35200 |
| MSDLETPKRRRPGVRPRASQACRACAAAKVRCDNLQSCHRCQNKRVACVRGSH | 34100 |
| KWIVPTPFASHAFHCLDGYFQSIPYHLYVYLVPMQKWLYISMFLFVNVWTVMI | 48400 |
| MIHSIAVYIMLISSTLTHSLISLLFYILSLYVGIFYTYHILFKVLFICQWFLF | 76200 |
| TFARHTDQKWLEEVITEALNELAGLGIVRAHLIALRWCSERITITRVYCSRLL | 43300 |
| MCNVALSLAWFIFPPFLHGILPFSTCLLLVFFLSLSSSFFSLITHLLLHCYLF | 34900 |
| VLGQISTVLIQYLFNPAYDLLSYCFNWYLDQCIVYLLLSIILSAPTIGAFVYV | 46400 |
| KKERKKEEKEEKGEKVKGKGERYVSDQVEEERERRRKRRNAKRQEREEEREKR | 42900 |
| GRHFLAGVLEGLPYVMPLFAPTVNSYKRLVENFWAPVTVSWGLEHRIASIRLI | 32600 |
| LSLADFAWKLSDGEEKREQCGNVAQILLNTISHRVLRTIIRHLVAVVGVLTPS | 60000 |
| MNQTSRFFLLFFFFFFFYFFPFSHLLPSFLLLFLSFYFSPSYLLLCLFSLIFY | 42600 |

| Sequence | transcriptional activation domain activity |
| --- | --- |
| MGPISFFFLFWRYYRLYCLFFVFFFFSTGLRWHDTLFHFLSFLLLGLPLLKRS | 82100 |
| SDKKAGNDKEEKKEEKKADGSEEKGKKVKDAEKEKEDKKSQQSEKKADDNGDK | 25000 |
| AAAKPVATKSSSKAKTPAAASISKSKAKPVAAAARGGGKKRKVASSPAPSVVA | 9030 |
| PSCCLSFFPDFSFFSVFFSLLVYFPFRALYDLLFVDLLLILFLFILIFFHLFL | 33000 |
| GEKRKRGGEGKGEDDDDDDDDDRGQEGDGKRGSEDTGGGSKKGRRRRKRGKGH | 22600 |
| AASAASEPAPKKRGRPARAKEEVVAAEPEPAVEQPKKGRGRGRKAAEPEPVAV | 18700 |
| TLKGIVLRNPVTLRLEEEEDDAANLTQYFVKCSEVDKFLLIQVMIKMRMIKGK | 46700 |
| LCTQLLVKILVFSAYRFSLTVLNLVSYLTIDARMVSIVVLGKSLFPLLVFVLL | 41000 |
| GGRKRRKEREQQRERPDEEQSRPGSRDDEEGEKEGRGKGTKARKGAGGAAGKG | 27600 |
| NQGSGSKTGGEVDLVGEREEVMRSVHDSRAQLSEDYEYERRNISLAVPLGRGQ | 41000 |
| SSSEEGSDGEEGDGEKDKDAKEKDGKDADGDVDMDADGKPKPKKAKPKKSTKK | 31500 |
| MPPFLFSEGAFMFRICFFPLCLWWCLFLFFSFFLLLQFLSYGFAFSCGRYILF | 65100 |
| ILLHIYVLGVCYFTFPLFLNGFAHWGLWKLDRITPVENLVQQYILKPYFKSYC | 62900 |
| DSSEVQRKKRRDSRKSKKESKSSSRRKDRSKDRSGRSKQRESKKKDRRRARSE | < 6570 |
| ILDLTVRFWGNVKLLRRLWNGIYHFASYHMSSMTRAKVTIVSDLLLGTYILKR | 70700 |
| RFYVYLLILLGCIIWINQCQYATDRSGYQRGHSAVLRALFYRLCRLLQTAITP | 35000 |
| SAASRVAEEKSGDDEAAAAPGTGATPEGVKRKTTRGGKKNRSKKEGGAAAAAA | < 6570 |
| AKRGQNEALAGAKPERGGAGAKQDARAARGRAQGSGVRGAGRGAAGRGQAQQV | 41100 |
| WLMYYIHATGDTKVSLPFNPSRVIKINMVLLSHLVAWINYLPLVVSYVHWRYW | 51000 |
| ENTRHRIFSIFRKSDLGLYALRGSQTLMNYSRVLGLLIRKWVITALRVCMWLG | 53000 |
